Data on 1 substance can be found in US20240398911A1.

Common to all, as to assay: BLI, sACE22-IgG1 immobilized, RBD-8h analyte
(BLI is a label-free optical method that tracks binding on a fibre tip over time.)

Experiment [1] concerns the target 8his-tagged RBD of the S protein of bat coronavirus isolate LYRa11 (bat coronavirus LYRa11).
Experiment [2] addresses 8his-tagged RBD of the S protein of bat coronavirus isolate Rs4084 (bat coronavirus Rs4084).
Experiment [3] deals with 8his-tagged RBD of the S protein of bat coronavirus isolate Rs4231 (bat coronavirus Rs4231).
Experiment [4] has as its target 8his-tagged RBD of the S protein of bat coronavirus isolate Rs7327 (bat coronavirus Rs7327).
The target of experiment [5] is 8his-tagged RBD of the S protein of bat coronavirus isolate RsSHC014 (bat coronavirus RsSHC014).

As usually defined, the Kd is the equilibrium constant for the complex coming apart. For orientation: koff means a measure of how fast the partners let go of each other. A lower koff goes with slow dissociation. As usually defined, the kon is the rate constant with which the complex forms. Take “sACE22.v2.4 fused to human IgG1 Fc (Fc fusion)”: the Kd in experiment [1] was determined as 1.8 nM; in experiment [2], 3.1 nM; in experiment [3], 3.5 nM; in experiment [4], 1.9 nM; in experiment [5], 1.3 nM. Further, the koff in experiment [1] came to 0.0025 s⁻¹; in experiment [2], 0.0015 s⁻¹; in experiment [3] it was 0.0016 s⁻¹; in experiment [4] it was 0.0018 s⁻¹; in experiment [5] it was 0.002 s⁻¹. In addition, the association rate constant (kon) was found to be 1.4e+06 M⁻¹ s⁻¹ in experiment [1]; 480000 M⁻¹ s⁻¹ in experiment [2]; 450000 M⁻¹ s⁻¹ in experiment [3]; 980000 M⁻¹ s⁻¹ in experiment [4]; 1.6e+06 M⁻¹ s⁻¹ in experiment [5].
